Measurements: US20150196651A1 (published 2015)
Square brackets hold non-standard residues; d marks the D form. Ends that are not written are not given here. * marks the point of attachment. Phe(F5) = N[C@@H](Cc1c(F)c(F)c(F)c(F)c1F)C(=O)O; Palmitoyl = CCCCCCCCCCCCCCCC(=O)*; Myristoyl = CCCCCCCCCCCCCC(=O)*; Nle = CCCC[C@H](N)C(=O)O; Sar = CNCC(=O)O

Legend:
[1] = target: T1, rat PrRP receptor in RC-4B/C cells (rat, UniProt Q64121 1-370); assay: competition with 125I-rat PrRP31, RC-4B/C cells
T1 construct: whole, on cells; endogenous receptor of RC-4B/C cells (ATCC); also called rat receptor; GPR10 receptor expressed in rat hypophyseal cells
T1 sequence (looked up): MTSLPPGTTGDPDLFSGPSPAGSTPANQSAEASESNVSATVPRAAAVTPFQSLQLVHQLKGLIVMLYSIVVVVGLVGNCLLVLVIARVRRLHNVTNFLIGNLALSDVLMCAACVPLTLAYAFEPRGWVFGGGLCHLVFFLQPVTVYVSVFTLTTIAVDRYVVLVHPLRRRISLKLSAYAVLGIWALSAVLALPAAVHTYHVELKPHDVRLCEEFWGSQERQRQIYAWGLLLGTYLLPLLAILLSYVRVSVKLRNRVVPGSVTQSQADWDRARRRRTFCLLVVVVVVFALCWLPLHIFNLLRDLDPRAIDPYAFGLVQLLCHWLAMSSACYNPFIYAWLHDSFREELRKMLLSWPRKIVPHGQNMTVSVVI
Protocol: The rat pituitary cell line RC-4B/C (ATCC, Manassas, USA) was grown on 24-well plates which had their bottom coated with polyethyleneimine. The cells were grown to the optimal density of 300-450 thousand cells per well.
(§1) Plates were incubated for 60 minutes at room temperature. After incubation, the cells were solubilized in 0.1 mol/l solution of NaOH, and the radioactivity bound to the cells was counted using a γ-counter. The experiments were performed in duplicate, and repeated at least three times.

[2] = target: T2, human PrRP receptor GPR10 (human, UniProt P49683 1-370); assay: competition with 125I-human PrRP31, CHO cells with human GPR10
T2 construct: whole, on cells; also called GPR10 human receptor transfected in CHO cells; human GPR10 receptor
T2 sequence (looked up): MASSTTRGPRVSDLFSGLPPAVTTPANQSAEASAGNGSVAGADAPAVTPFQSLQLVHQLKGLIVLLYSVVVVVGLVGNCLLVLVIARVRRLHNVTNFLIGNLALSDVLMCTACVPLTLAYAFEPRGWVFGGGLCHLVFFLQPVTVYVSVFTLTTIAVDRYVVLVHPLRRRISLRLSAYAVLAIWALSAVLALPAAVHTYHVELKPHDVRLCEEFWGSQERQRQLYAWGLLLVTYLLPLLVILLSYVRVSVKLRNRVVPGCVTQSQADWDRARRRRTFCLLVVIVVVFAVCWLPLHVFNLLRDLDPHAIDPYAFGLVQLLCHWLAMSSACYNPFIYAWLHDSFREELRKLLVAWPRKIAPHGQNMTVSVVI
Protocol: CHO cells transfected with human PrRP receptor GPR10 (Perkin Elmer, USA) were grown on 24-well plates coated with polyethyleneimine. […] The following agents were used for the experiment: binding buffer (25 mmol.1⁻¹ Tris, pH 7.4; 118 mmol.1⁻¹ NaCl, 10 mmol.1⁻¹ MgCl₂, 1 mmol.1⁻¹ CaCl₂, 5.5 mmol.1⁻¹ glucose, 0.5 mg/ml BSA), unlabeled analogs of PrRP (i.e. the analog being tested) at a final concentration between 10⁻¹¹ to 10⁻⁴ mol.1⁻¹, and radiolabeled human ¹²⁵1-PrRP31 at a final concentration of 5×10⁻¹¹ mol.1⁻¹.
as §1

B1: analog no. 21 (peptide)
peptide: SRAHQHS[Nle]ETRTPDINPAWYTGRGIRPVGR[Phe(F5)]-NH2
With B1 the “% of PrRP31” value [1] was 51%, the Ki [1] was 9.69 nM and the “% of PrRP31” value [2] was 45%. The Ki [2] was 8.59 nM.

B2: analog no. 22 (peptide)
peptide: Palmitoyl-SRAHQHS[Nle]ETRTPDINPAWYTGRGIRPVGR[Phe(F5)]-NH2
With B2 the “% of PrRP31” value [1] was 966%, the Ki [1] was 0.51 nM and the “% of PrRP31” value [2] was 203%. The Ki [2] was 1.92 nM.

B3: analog no. 3 (peptide)
peptide: SRAHQHS[Nle]ETRTPDINPAWYTGRGIRPVGRF-NH2
For B3, the “% of PrRP31” value [1] was 385%, the Ki [1] was 1.28 nM and the “% of PrRP31” value [2] was 203%. For the same binder, the Ki [2] was 1.92 nM.

B4: analog no. 23 (peptide)
peptide: SRAHQHS[Nle]ETRTPDINPAWYTGRGIRPVGRY-NH2
modifications: N-terminus assumed
SMILES: CCCC[C@H](NC(=O)[C@H](CO)NC(=O)[C@H](Cc1c[nH]cn1)NC(=O)[C@H](CCC(N)=O)NC(=O)[C@H](Cc1c[nH]cn1)NC(=O)[C@H](C)NC(=O)[C@H](CCCNC(=N)N)NC(=O)[C@@H](N)CO)C(=O)N[C@@H](CCC(=O)O)C(=O)N[C@H](C(=O)N[C@@H](CCCNC(=N)N)C(=O)N[C@H](C(=O)N1CCC[C@H]1C(=O)N[C@@H](CC(=O)O)C(=O)N[C@H](C(=O)N[C@@H](CC(N)=O)C(=O)N1CCC[C@H]1C(=O)N[C@@H](C)C(=O)N[C@@H](Cc1c[nH]c2ccccc12)C(=O)N[C@@H](Cc1ccc(O)cc1)C(=O)N[C@H](C(=O)NCC(=O)N[C@@H](CCCNC(=N)N)C(=O)NCC(=O)N[C@H](C(=O)N[C@@H](CCCNC(=N)N)C(=O)N1CCC[C@H]1C(=O)N[C@H](C(=O)NCC(=O)N[C@@H](CCCNC(=N)N)C(=O)N[C@@H](Cc1ccc(O)cc1)C(N)=O)C(C)C)[C@@H](C)CC)[C@@H](C)O)[C@@H](C)CC)[C@@H](C)O)[C@@H](C)O
For B4, the “% of PrRP31” value [1] was 152%, the Ki [1] was 3.25 nM and the “% of PrRP31” value [2] was 193%. For the same binder, the Ki [2] was 2.02 nM.

B5: analog no. 24 (peptide)
peptide: Palmitoyl-SRAHQHS[Nle]ETRTPDINPAWYTGRGIRPVGRY-NH2
SMILES: CCCCCCCCCCCCCCCC(=O)N[C@@H](CO)C(=O)N[C@@H](CCCNC(=N)N)C(=O)N[C@@H](C)C(=O)N[C@@H](Cc1c[nH]cn1)C(=O)N[C@@H](CCC(N)=O)C(=O)N[C@@H](Cc1c[nH]cn1)C(=O)N[C@@H](CO)C(=O)N[C@@H](CCCC)C(=O)N[C@@H](CCC(=O)O)C(=O)N[C@H](C(=O)N[C@@H](CCCNC(=N)N)C(=O)N[C@H](C(=O)N1CCC[C@H]1C(=O)N[C@@H](CC(=O)O)C(=O)N[C@H](C(=O)N[C@@H](CC(N)=O)C(=O)N1CCC[C@H]1C(=O)N[C@@H](C)C(=O)N[C@@H](Cc1c[nH]c2ccccc12)C(=O)N[C@@H](Cc1ccc(O)cc1)C(=O)N[C@H](C(=O)NCC(=O)N[C@@H](CCCNC(=N)N)C(=O)NCC(=O)N[C@H](C(=O)N[C@@H](CCCNC(=N)N)C(=O)N1CCC[C@H]1C(=O)N[C@H](C(=O)NCC(=O)N[C@@H](CCCNC(=N)N)C(=O)N[C@@H](Cc1ccc(O)cc1)C(N)=O)C(C)C)[C@@H](C)CC)[C@@H](C)O)[C@@H](C)CC)[C@@H](C)O)[C@@H](C)O
With B5 the “% of PrRP31” value [1] was 1120%, the Ki [1] was 0.44 nM and the “% of PrRP31” value [2] was 248%. It also gave a Ki [2] of 1.57 nM.

B6: Rat PrRP31 (peptide)
peptide: SRAHQHSMETRTPDINPAWYTGRGIRPVGRF-NH2
notes: synthetic peptide
B6 was tested, and the “% of PrRP31” value [1] was 100%, the Ki [1] was 4.93 nM and the “% of PrRP31” value [2] was 100%. It also gave a Ki [2] of 3.89 nM.

B7: analog no. 25 (peptide)
peptide: [dF][dR]GVPRIGRGTYWAPNIDPT-NH2
modifications: N-terminus assumed
SMILES: CC[C@H](C)[C@H](NC(=O)[C@H](CCCNC(=N)N)NC(=O)[C@@H]1CCCN1C(=O)[C@@H](NC(=O)CNC(=O)[C@@H](CCCNC(=N)N)NC(=O)[C@H](N)Cc1ccccc1)C(C)C)C(=O)NCC(=O)N[C@@H](CCCNC(=N)N)C(=O)NCC(=O)N[C@H](C(=O)N[C@@H](Cc1ccc(O)cc1)C(=O)N[C@@H](Cc1c[nH]c2ccccc12)C(=O)N[C@@H](C)C(=O)N1CCC[C@H]1C(=O)N[C@@H](CC(N)=O)C(=O)N[C@H](C(=O)N[C@@H](CC(=O)O)C(=O)N1CCC[C@H]1C(=O)N[C@H](C(N)=O)[C@@H](C)O)[C@@H](C)CC)[C@@H](C)O
notes: scrambled peptide; also called 25 scram
With B7 the “% of PrRP31” value [1] was 0.09%, the Ki [1] was 5200 nM and the “% of PrRP31” value [2] was 0.06%. The Ki [2] was 6290 nM.

B8: analog no. 27 (peptide)
peptide: TPDINPAWYTGR[Sar]IRPVGRF-NH2
modifications: N-terminus assumed
SMILES: CC[C@H](C)[C@H](NC(=O)CN(C)C(=O)[C@H](CCCNC(=N)N)NC(=O)CNC(=O)[C@@H](NC(=O)[C@H](Cc1ccc(O)cc1)NC(=O)[C@H](Cc1c[nH]c2ccccc12)NC(=O)[C@H](C)NC(=O)[C@@H]1CCCN1C(=O)[C@H](CC(N)=O)NC(=O)[C@@H](NC(=O)[C@H](CC(=O)O)NC(=O)[C@@H]1CCCN1C(=O)[C@@H](N)[C@@H](C)O)[C@@H](C)CC)[C@@H](C)O)C(=O)N[C@@H](CCCNC(=N)N)C(=O)N1CCC[C@H]1C(=O)N[C@H](C(=O)NCC(=O)N[C@@H](CCCNC(=N)N)C(=O)N[C@@H](Cc1ccccc1)C(N)=O)C(C)C
B8 was tested, and the “% of PrRP31” value [1] was 62%, the Ki [1] was 7.94 nM and the “% of PrRP31” value [2] was 86%. For the same binder, the Ki [2] was 4.51 nM.

B9: analog no. 28 (peptide)
peptide: Myristoyl-TPDINPAWYTGR[Sar]IRPVGRF-NH2
SMILES: CCCCCCCCCCCCCC(=O)N[C@H](C(=O)N1CCC[C@H]1C(=O)N[C@@H](CC(=O)O)C(=O)N[C@H](C(=O)N[C@@H](CC(N)=O)C(=O)N1CCC[C@H]1C(=O)N[C@@H](C)C(=O)N[C@@H](Cc1c[nH]c2ccccc12)C(=O)N[C@@H](Cc1ccc(O)cc1)C(=O)N[C@H](C(=O)NCC(=O)N[C@@H](CCCNC(=N)N)C(=O)N(C)CC(=O)N[C@H](C(=O)N[C@@H](CCCNC(=N)N)C(=O)N1CCC[C@H]1C(=O)N[C@H](C(=O)NCC(=O)N[C@@H](CCCNC(=N)N)C(=O)N[C@@H](Cc1ccccc1)C(N)=O)C(C)C)[C@@H](C)CC)[C@@H](C)O)[C@@H](C)CC)[C@@H](C)O
For B9, the “% of PrRP31” value [1] was 1540%, the Ki [1] was 0.32 nM and the “% of PrRP31” value [2] was 125%. The Ki [2] was 3.12 nM.

B10: analog no. 51 (peptide)
peptide: SRTHRHSMEIRTPDINPK(Palmitoyl)WYASRGIRPVGRF-NH2
modifications: N-terminus assumed
SMILES: CCCCCCCCCCCCCCCC(=O)NCCCC[C@H](NC(=O)[C@@H]1CCCN1C(=O)[C@H](CC(N)=O)NC(=O)[C@@H](NC(=O)[C@H](CC(=O)O)NC(=O)[C@@H]1CCCN1C(=O)[C@@H](NC(=O)[C@H](CCCNC(=N)N)NC(=O)[C@@H](NC(=O)[C@H](CCC(=O)O)NC(=O)[C@H](CCSC)NC(=O)[C@H](CO)NC(=O)[C@H](Cc1c[nH]cn1)NC(=O)[C@H](CCCNC(=N)N)NC(=O)[C@H](Cc1c[nH]cn1)NC(=O)[C@@H](NC(=O)[C@H](CCCNC(=N)N)NC(=O)[C@@H](N)CO)[C@@H](C)O)[C@@H](C)CC)[C@@H](C)O)[C@@H](C)CC)C(=O)N[C@@H](Cc1c[nH]c2ccccc12)C(=O)N[C@@H](Cc1ccc(O)cc1)C(=O)N[C@@H](C)C(=O)N[C@@H](CO)C(=O)N[C@@H](CCCNC(=N)N)C(=O)NCC(=O)N[C@H](C(=O)N[C@@H](CCCNC(=N)N)C(=O)N1CCC[C@H]1C(=O)N[C@H](C(=O)NCC(=O)N[C@@H](CCCNC(=N)N)C(=O)N[C@@H](Cc1ccccc1)C(N)=O)C(C)C)[C@@H](C)CC
B10 was tested, and the “% of PrRP31” value [2] was 54% and the Ki [2] was 7.24 nM.
